# Measurements from publication PMC12102759.
# B1: PEX5 peptide 238-253 (Peroxisomal targeting signal 1 receptor), 16-mer library wild type / PEX14 Pex14 (PEX14 PEX14, residues 16-84) (parent)
# chain 1: AQAEQWAAEFIQQQGT
# chain 2: TPGSENVLPREPLIATAVKFLQNSRVRQSPLATRRAFLKKKGLTDEEIDMAFQQSGTAADEPSSLGPAT
# B2: PAIP1 peptide 126-141 (Polyadenylate-binding protein-interacting protein 1), 16-mer library wild type / PABPC1 PABC (PABPC1 PABC domain, residues 544-623) (parent)
# chain 1: SKLSVNAPEFYPSGYS
# chain 2: PLTASMLASAPPQEQKQMLGERLFPLIQAMHPTLAGKITGMLLEIDNSELLHMLESPESLRSKVDEAVAVLQAHQAKEAA
# B3: TPTE2 peptide 94-109 (Phosphatidylinositol 3,4,5-trisphosphate 3-phosphatase TPTE2), 16-mer library wild type / TLN1 PTB (TLN1 Phosphotyrosine-binding (PTB) domain, residues 309-401) (parent)
# chain 1: DLIFTDSKLYIPLEYR
# chain 2: GVSFFLVKEKMKGKNKLVPRLLGITKECVMRVDEKTKEVIQEWNLTNIKRWAASPKSFTLDFGDYQDGYYSVQTTEGEQIAQLIAGYIDIILK
# Variants of: B1
# Experiment: proteomic peptide phage display deep mutational scan (ProP-PD DMS): M13 P8 16-mer library selected against immobilised GST-tagged bait for four days (rounds), NGS of the eluted pools per day and pseudo-replica
# Conditions: with PEX14 Pex14 (PEX14 PEX14, residues 16-84); bait immobilised on MaxiSorp plates (10 µg), library pre-cleared on GST, 2 h binding at 4 °C, five washes; one round per day, days 1-4; value from days 2 and 3; keep out of graded; scale: average fractional NGS count over selection days 2 and 3
row,Variant,screen value
1,chain 1 AQAEQWAAEFIQQQGV,0.00206
2,chain 1 AQAEQWAAEFIQQQGN,0.000881
3,chain 1 AQAEQWAAEFIQQQGP,0.000382
4,chain 1 AQAEQWAAEFIQQQGS,0.000223
5,chain 1 AQAEQWAAEFIQQQGQ,0.00068
6,chain 1 AQAEQWAAEFIQQQGM,0.000253
7,chain 1 AQAEQLAAEFIQQQGT,0
8,chain 1 AQAEQFAAEFIQQQGT,0.000898

# Variants of: B2
# Experiment: as above
# Conditions: with PABPC1 PABC (PABPC1 PABC domain, residues 544-623); bait immobilised on MaxiSorp plates (10 µg), library pre-cleared on GST, 2 h binding at 4 °C, five washes; one round per day, days 1-4; value from days 2 and 3; keep out of graded; scale: average fractional NGS count over selection days 2 and 3
row,Variant,screen value
1,chain 1 SKLSVNAPEFYPSGKS,0.00083
2,chain 1 SKLSVNAPEFYPSGQS,0.000411
3,chain 1 SKLSVNAPEFYPSGVS,0.000741
4,chain 1 SKLSVNAPEFYPSGAS,0.00116
5,chain 1 SKLSVNAPEFYPSGHS,0.000264
6,chain 1 SKLSVNAPEFYPSGLS,0.000221
7,chain 1 SKLSVNAPEFYPSGIS,7.69e-05
8,chain 1 SKLSVNAPEFYPSGNS,0.000304
9,chain 1 SKLSVNAPEFYPSGMS,4.17e-05
10,chain 1 SKLSVNAPEFYPSGFS,0.000589
11,chain 1 SKLSVNAPEFYPSGSS,0.00124
12,chain 1 SKLSVNAPEFYPSGDS,0.000552
13,chain 1 SKLSVNAPEFYPSGES,7.22e-05
14,chain 1 SKLSVNAPEFYPSGTS,0.000348
15,chain 1 SKLSVNAPEFYPSGWS,0.000396
16,chain 1 SKLSVNAPEFYPSGRS,0.00115
17,chain 1 SKLSVNAPEFWPSGYS,0.000643

# Variants of: B3
# Experiment: as above
# Conditions: with TLN1 PTB (TLN1 Phosphotyrosine-binding (PTB) domain, residues 309-401); bait immobilised on MaxiSorp plates (10 µg), library pre-cleared on GST, 2 h binding at 4 °C, five washes; one round per day, days 1-4; value from days 2 and 3; keep out of graded; scale: average fractional NGS count over selection days 2 and 3
row,Variant,screen value
1,chain 1 FLIFTDSKLYIPLEYR,2.74e-05
2,chain 1 GLIFTDSKLYIPLEYR,0.00013
3,chain 1 PLIFTDSKLYIPLEYR,0.00123
4,chain 1 ALIFTDSKLYIPLEYR,9.19e-05
5,chain 1 NLIFTDSKLYIPLEYR,7.86e-05
6,chain 1 HLIFTDSKLYIPLEYR,0
7,chain 1 ELIFTDSKLYIPLEYR,0.000184
8,chain 1 SLIFTDSKLYIPLEYR,0.000249
9,chain 1 QLIFTDSKLYIPLEYR,3.51e-05
10,chain 1 TLIFTDSKLYIPLEYR,0.000148
11,chain 1 ILIFTDSKLYIPLEYR,0
12,chain 1 KLIFTDSKLYIPLEYR,0
13,chain 1 WLIFTDSKLYIPLEYR,4.41e-05
14,chain 1 DLIFTNSKLYIPLEYR,6.84e-05
15,chain 1 DLIFTESKLYIPLEYR,0.000625
16,chain 1 DLIFTTSKLYIPLEYR,0.000144
17,chain 1 DLIFTMSKLYIPLEYR,0
18,chain 1 DLIFTASKLYIPLEYR,3.11e-05
19,chain 1 DLIFTHSKLYIPLEYR,3.45e-05
20,chain 1 DLIFTWSKLYIPLEYR,3.79e-05
21,chain 1 DLIFTSSKLYIPLEYR,0.000216
22,chain 1 DLIFTGSKLYIPLEYR,0
